Data on 2 substances can be found in PMC3538076.

In test [1] the target is H3–H4 complex with H3 labeled with Cy3 at Leu-65 (H3 C110A) (Xenopus laevis) (UniProt P84233). In words: fluorescence polarisation.
For test [2], the target named is RbAp48–H3–H4 complex, labeled with Cy3 at Gln-125 on H3 (human | Xenopus laevis) (UniProt Q09028). The experiment in a line: fluorescence polarisation. In general terms: In fluorescence polarisation assays a small probe gives low polarisation when free and higher when bound to something large.
The target in test [3] is H3–H4 complex with H3 labeled with Cy3 at Gln-125 (H3 C110A) (Xenopus laevis) (UniProt P84233). The experiment in a line: fluorescence polarisation.
The target is the same in test [4]. In words: fluorescence polarisation. This is another data set of the same source.
Test [5] deals with gH3–gH4 heterodimer (globular forms of histones H3 and H4) (Xenopus laevis) (UniProt P84233). The experiment in a line: SEC. (Size exclusion chromatography separates by hydrodynamic size, large species first.)

Values joined by “and” are separate entries in the source; they are usually repeats but may differ in a detail not shown here. Equal entries are not always repeated. Where two headings read alike, the source gives them in different places.

Usually Kd stands for the free concentration of one partner at which half of the binding sites on the other are occupied at equilibrium, for simple one-to-one binding. High values mean a looser complex, low ones a tighter complex. For “human retinoblastoma-associated protein RbAp48 (from UniProt Q09028 1-425) (natural protein)”, in test [1], the Kd was 0.61 nM. That is a sub-nanomolar value.

“human ASF1^1-159 (anti-silencing function protein 1, residues 1-159) (from UniProt Q9Y294 1-159) (domain or fragment)”: the Kd in test [2] was 7.1 nM and 3 nM and 6.8 nM; in test [3] it was 0.3 nM; in test [4], 0.27 nM. In test [5], this substance returned a stoichiometry N (ASF1^1-159 : gH3–gH4) of 1.
